{"source": "paper PMC4866044", "key": {"[1]": {"target": "HA-RanBP2 mFG1/2, full-length (human) (UniProt P49792)", "sequence (P49792 whole entry)": "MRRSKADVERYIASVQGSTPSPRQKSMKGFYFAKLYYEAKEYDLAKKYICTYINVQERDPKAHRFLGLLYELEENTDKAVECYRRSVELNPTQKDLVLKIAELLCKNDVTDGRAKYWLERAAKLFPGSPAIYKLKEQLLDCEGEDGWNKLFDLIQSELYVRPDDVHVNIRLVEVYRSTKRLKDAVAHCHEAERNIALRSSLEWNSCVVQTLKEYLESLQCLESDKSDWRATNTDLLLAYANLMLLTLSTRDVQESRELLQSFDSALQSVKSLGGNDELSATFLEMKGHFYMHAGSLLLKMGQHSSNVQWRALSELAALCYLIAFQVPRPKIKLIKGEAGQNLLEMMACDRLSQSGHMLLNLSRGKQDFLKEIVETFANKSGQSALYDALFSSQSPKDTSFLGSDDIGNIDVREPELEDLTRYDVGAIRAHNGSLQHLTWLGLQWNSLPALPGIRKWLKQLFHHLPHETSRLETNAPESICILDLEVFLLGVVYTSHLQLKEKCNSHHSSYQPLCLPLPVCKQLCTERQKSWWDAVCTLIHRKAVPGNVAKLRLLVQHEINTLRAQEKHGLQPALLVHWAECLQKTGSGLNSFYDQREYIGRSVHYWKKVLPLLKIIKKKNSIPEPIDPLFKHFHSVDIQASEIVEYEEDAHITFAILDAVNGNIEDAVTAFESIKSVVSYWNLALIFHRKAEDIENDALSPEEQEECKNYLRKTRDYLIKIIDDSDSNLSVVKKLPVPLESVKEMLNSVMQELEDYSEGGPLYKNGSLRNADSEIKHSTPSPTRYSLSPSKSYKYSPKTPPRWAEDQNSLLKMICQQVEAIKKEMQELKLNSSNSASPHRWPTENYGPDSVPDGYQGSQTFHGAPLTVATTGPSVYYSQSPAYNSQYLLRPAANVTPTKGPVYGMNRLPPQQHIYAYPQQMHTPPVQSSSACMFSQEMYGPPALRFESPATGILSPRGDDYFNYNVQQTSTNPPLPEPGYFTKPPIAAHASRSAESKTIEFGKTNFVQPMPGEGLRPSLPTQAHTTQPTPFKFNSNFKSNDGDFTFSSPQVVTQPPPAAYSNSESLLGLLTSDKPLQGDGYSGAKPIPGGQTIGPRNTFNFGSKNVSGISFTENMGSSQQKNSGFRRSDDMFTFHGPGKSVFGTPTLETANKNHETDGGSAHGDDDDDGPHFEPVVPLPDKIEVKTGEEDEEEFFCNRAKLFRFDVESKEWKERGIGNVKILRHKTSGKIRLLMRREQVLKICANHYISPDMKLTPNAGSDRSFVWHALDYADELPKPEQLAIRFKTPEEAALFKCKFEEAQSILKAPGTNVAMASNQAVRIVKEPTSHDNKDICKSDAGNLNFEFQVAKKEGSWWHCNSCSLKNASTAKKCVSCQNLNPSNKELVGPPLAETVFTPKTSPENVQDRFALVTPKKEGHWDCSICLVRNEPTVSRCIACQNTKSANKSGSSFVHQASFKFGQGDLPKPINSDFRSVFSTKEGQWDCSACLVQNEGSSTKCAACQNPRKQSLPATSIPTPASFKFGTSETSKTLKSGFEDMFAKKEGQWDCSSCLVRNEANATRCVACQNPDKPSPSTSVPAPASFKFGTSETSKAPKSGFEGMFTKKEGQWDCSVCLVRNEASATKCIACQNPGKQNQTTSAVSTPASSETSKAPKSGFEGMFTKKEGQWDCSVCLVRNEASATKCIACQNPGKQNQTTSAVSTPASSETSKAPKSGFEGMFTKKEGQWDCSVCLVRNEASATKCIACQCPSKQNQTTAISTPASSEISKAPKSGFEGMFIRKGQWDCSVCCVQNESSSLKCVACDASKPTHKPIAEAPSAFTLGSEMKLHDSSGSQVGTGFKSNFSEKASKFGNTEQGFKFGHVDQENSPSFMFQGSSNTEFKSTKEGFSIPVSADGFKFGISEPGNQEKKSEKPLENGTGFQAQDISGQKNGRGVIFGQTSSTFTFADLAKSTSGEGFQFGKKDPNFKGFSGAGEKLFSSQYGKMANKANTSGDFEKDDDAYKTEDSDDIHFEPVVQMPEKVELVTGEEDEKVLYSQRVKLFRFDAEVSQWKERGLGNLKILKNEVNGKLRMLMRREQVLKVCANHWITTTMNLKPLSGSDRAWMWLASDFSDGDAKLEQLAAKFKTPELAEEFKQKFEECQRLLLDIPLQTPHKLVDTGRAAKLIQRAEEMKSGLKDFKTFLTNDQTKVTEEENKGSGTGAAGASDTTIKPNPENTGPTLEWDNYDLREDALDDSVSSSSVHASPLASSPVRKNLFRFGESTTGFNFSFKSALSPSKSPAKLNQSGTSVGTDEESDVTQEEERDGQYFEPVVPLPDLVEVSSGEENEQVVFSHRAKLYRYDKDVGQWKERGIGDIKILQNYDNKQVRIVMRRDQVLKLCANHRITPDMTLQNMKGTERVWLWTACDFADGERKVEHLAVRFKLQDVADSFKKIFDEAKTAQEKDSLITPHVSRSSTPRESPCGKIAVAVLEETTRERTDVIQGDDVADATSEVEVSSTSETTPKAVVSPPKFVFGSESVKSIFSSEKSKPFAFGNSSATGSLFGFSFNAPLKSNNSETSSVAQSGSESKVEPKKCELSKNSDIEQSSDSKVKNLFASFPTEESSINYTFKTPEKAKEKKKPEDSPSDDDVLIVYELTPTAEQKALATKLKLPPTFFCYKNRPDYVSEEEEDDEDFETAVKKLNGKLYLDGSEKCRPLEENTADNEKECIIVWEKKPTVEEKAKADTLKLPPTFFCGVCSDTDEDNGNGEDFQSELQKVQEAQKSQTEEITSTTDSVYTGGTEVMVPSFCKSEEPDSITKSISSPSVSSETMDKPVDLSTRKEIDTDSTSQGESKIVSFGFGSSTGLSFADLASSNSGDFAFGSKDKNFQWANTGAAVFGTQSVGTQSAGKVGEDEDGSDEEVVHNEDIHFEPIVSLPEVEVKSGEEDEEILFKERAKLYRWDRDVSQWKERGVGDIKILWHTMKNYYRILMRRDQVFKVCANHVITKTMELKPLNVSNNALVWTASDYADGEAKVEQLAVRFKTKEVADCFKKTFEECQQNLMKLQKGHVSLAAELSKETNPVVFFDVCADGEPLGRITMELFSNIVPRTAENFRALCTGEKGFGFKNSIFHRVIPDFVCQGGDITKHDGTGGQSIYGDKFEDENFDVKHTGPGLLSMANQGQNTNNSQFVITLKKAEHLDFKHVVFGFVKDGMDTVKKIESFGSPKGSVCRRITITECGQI", "assay": "co-IP; αHA-agarose immunoprecipitation from nocodazole-arrested HEK293T cells depleted of endogenous RanBP2 by siRNA and transfected with HA-RanBP2 constructs; Crm1 blot normalised to HA-RanBP2, three biological replicates"}, "[2]": {"target": "Cy3-labelled Crm1 (UniProt O14980)", "assay": "MST", "details": "Cy3-labelled Crm1 20 nM; RanBP2-3/4 fragments 0.3 nM-10 μM; no RanQ69L; laser-power 70%, LED-power 20%; parent: est. 0.94; read off a plot"}}, "data": [{"substance": "Crm1, endogenous (HEK293T) (from UniProt O14980 1-1071) (natural protein)", "values": [{"measurement": "reduction of co-immunoprecipitated Crm1 against wild-type HA-RanBP2", "setting": "[1]", "value": 40, "unit": "%"}]}, {"substance": "RanBP2-3/4-His (aa 2,304–3,062), free fragment (from UniProt P49792) mFG12 (= mFG1/2, 11 F to S mutations in both FG-repeat patches; positions not printed)", "values": [{"measurement": "other: fraction of bound Crm1-Cy3 at the highest RanBP2-3/4 concentration (10,000 nM)", "setting": "[2]", "value": 0.04}]}]}
